# * marks the point of attachment. Hexanoyl = CCCCCC(=O)*
# T1: Rat VPAC1 receptor (rat, UniProt P30083 31-459)
# T1 sequence (looked up): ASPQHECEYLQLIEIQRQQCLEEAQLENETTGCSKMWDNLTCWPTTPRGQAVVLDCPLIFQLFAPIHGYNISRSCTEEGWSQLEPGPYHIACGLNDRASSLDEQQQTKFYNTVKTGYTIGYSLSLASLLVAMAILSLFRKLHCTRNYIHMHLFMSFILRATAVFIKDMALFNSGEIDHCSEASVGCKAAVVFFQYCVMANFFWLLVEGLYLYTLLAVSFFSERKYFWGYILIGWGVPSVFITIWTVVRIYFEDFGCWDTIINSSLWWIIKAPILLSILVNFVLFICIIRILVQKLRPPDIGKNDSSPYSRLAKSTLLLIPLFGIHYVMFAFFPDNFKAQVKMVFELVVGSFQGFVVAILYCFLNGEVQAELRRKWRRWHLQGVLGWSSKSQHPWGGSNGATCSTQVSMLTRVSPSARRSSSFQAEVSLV
# Biological target: T1, Rat VPAC1 receptor
# Assay: cell-based or functional assay
binder,measurement,value
Hexanoyl-HSDAVFTDNYTRLRKQVAAKKYLQSIKNSRTSPPPK-NH2 (not fully specified (residue 36); printed as C6-HSDAVFTDNYTRLRKQVAAKKYLQSIKNSRTSPPPK(WPEG40K)-NH2) [P136: C6-…(WPEG40K)-NH2 (SEQ ID NO: 44)],"EC50 (nm), in vitro potency using DiscoveRx (cAMP)",15 nM
